Data published in the supplement of paper PMC9112550, “Optimization of the antimicrobial peptide Bac7 by deep mutational scanning” (BMC Biology, 2022).

Test system: Escherichia coli TOP10
Assay: shrunken log2 fold change of peptide-encoding DNA abundance (4.5 h post-induction vs induction); higher = less antimicrobial activity (less host growth inhibition)
Settings: time post-induction: 4.5 h; library: site-saturation at positions 5, 18, 19, 20
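Also: peptides expressed intracellularly from a pBAD plasmid library in pooled LB shake-flask culture, induced with 0.3% L-arabinose, DNA abundance read by NGS, three biological replicates, DESeq2 with apeglm shrinkage.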

| Sequence | shrunken log2 fold change |
| --- | --- |
| RRIRERPPRLPRPRPRPKRIPRP | 0.103 |
| RRIRERPPRLPRPRPRPKSLPRP | -0.515 |
| RRIRERPPRLPRPRPRPKSMPRP | -0.307 |
| RRIRERPPRLPRPRPRPKSWPRP | 0.715 |
| RRIRERPPRLPRPRPRPKVCPRP | -0.0496 |
| RRIRERPPRLPRPRPRPKVGPRP | 0.0685 |
| RRIRERPPRLPRPRPRPKWYPRP | -0.175 |
| RRIRERPPRLPRPRPRPKYFPRP | -0.0979 |
| RRIRERPPRLPRPRPRPLDFPRP | -0.353 |
| RRIRERPPRLPRPRPRPLDQPRP | 0.09 |
| RRIRERPPRLPRPRPRPLEAPRP | 0.105 |
| RRIRERPPRLPRPRPRPLEYPRP | -0.494 |
| RRIRERPPRLPRPRPRPLFRPRP | 1.09 |
| RRIRERPPRLPRPRPRPLGMPRP | -0.294 |
| RRIRERPPRLPRPRPRPLHVPRP | -0.268 |
| RRIRERPPRLPRPRPRPLIYPRP | -0.682 |
| RRIRERPPRLPRPRPRPLKKPRP | 0.0403 |
| RRIRERPPRLPRPRPRPLLYPRP | -0.309 |
| RRIRERPPRLPRPRPRPLMKPRP | -0.502 |
| RRIRERPPRLPRPRPRPLMTPRP | -0.295 |
| RRIRERPPRLPRPRPRPLNWPRP | -0.373 |
| RRIRERPPRLPRPRPRPLPCPRP | -0.315 |
| RRIRERPPRLPRPRPRPLPHPRP | -0.438 |
| RRIRERPPRLPRPRPRPLSMPRP | -0.242 |
| RRIRERPPRLPRPRPRPLTQPRP | -0.281 |

| Sequence | shrunken log2 fold change |
| --- | --- |
| RRIRERPPRLPRPRPRPLWFPRP | 0.174 |
| RRIRERPPRLPRPRPRPMCKPRP | -0.373 |
| RRIRERPPRLPRPRPRPMEGPRP | 0.00131 |
| RRIRERPPRLPRPRPRPMENPRP | -0.104 |
| RRIRERPPRLPRPRPRPMEWPRP | 0.0338 |
| RRIRERPPRLPRPRPRPMFEPRP | 0.000206 |
| RRIRERPPRLPRPRPRPMFSPRP | -0.104 |
| RRIRERPPRLPRPRPRPMGFPRP | 0.0499 |
| RRIRERPPRLPRPRPRPMGVPRP | 0.22 |
| RRIRERPPRLPRPRPRPMMCPRP | -0.0137 |
| RRIRERPPRLPRPRPRPMMLPRP | -0.0415 |
| RRIRERPPRLPRPRPRPMNKPRP | -0.765 |
| RRIRERPPRLPRPRPRPMNRPRP | -0.401 |
| RRIRERPPRLPRPRPRPMPIPRP | -0.18 |
| RRIRERPPRLPRPRPRPMPLPRP | 0.000847 |
| RRIRERPPRLPRPRPRPMQTPRP | 0.0432 |
| RRIRERPPRLPRPRPRPMRRPRP | -0.0292 |
| RRIRERPPRLPRPRPRPMRSPRP | 0.119 |
| RRIRERPPRLPRPRPRPMSGPRP | 0.0249 |
| RRIRERPPRLPRPRPRPMTMPRP | -0.136 |
| RRIRERPPRLPRPRPRPMVEPRP | -0.0932 |
| RRIRERPPRLPRPRPRPMWEPRP | 0.169 |
| RRIRERPPRLPRPRPRPMWMPRP | -0.0314 |
| RRIRERPPRLPRPRPRPNAIPRP | 0.185 |
| RRIRERPPRLPRPRPRPNCSPRP | -0.202 |

| Sequence | shrunken log2 fold change |
| --- | --- |
| RRIRERPPRLPRPRPRPNDVPRP | 0.0254 |
| RRIRERPPRLPRPRPRPNECPRP | -0.154 |
| RRIRERPPRLPRPRPRPNEMPRP | 0.0665 |
| RRIRERPPRLPRPRPRPNERPRP | -0.105 |
| RRIRERPPRLPRPRPRPNEYPRP | -0.726 |
| RRIRERPPRLPRPRPRPNFRPRP | -0.479 |
| RRIRERPPRLPRPRPRPNGPPRP | -0.0578 |
| RRIRERPPRLPRPRPRPNGTPRP | -0.0811 |
| RRIRERPPRLPRPRPRPNIDPRP | -0.0761 |
| RRIRERPPRLPRPRPRPNLIPRP | -0.421 |
| RRIRERPPRLPRPRPRPNMSPRP | -0.179 |
| RRIRERPPRLPRPRPRPNPFPRP | 0.0226 |
| RRIRERPPRLPRPRPRPNQSPRP | -0.236 |
| RRIRERPPRLPRPRPRPNQVPRP | -0.0305 |
| RRIRERPPRLPRPRPRPNQYPRP | -0.674 |
| RRIRERPPRLPRPRPRPNRLPRP | -0.0671 |
| RRIRERPPRLPRPRPRPNSYPRP | -0.433 |
| RRIRERPPRLPRPRPRPNTGPRP | -0.385 |
| RRIRERPPRLPRPRPRPNVIPRP | -1.38 |
| RRIRERPPRLPRPRPRPNVQPRP | -0.403 |
| RRIRERPPRLPRPRPRPNYAPRP | -0.0181 |
| RRIRERPPRLPRPRPRPPACPRP | 0.0779 |
| RRIRERPPRLPRPRPRPPARPRP | 0.451 |
| RRIRERPPRLPRPRPRPPAYPRP | -0.173 |
| RRIRERPPRLPRPRPRPPCNPRP | -0.392 |
